Among the data in article PMC7094161 are EGFP fluorescence lifetime values, retold here.

Experiment [1] has as its target CDC25C substrate peptide of the EKAR construct. Nature of the experiment: FRET or BRET; FRET/FLIM: EGFP fluorescence lifetime of EKAR constructs (WW domain and peptide on one chain) in living COS cells; serum in the medium.
Experiment [2] has the same target. Nature of the experiment: FRET or BRET; FRET/FLIM: EGFP fluorescence lifetime of EKAR constructs (WW domain and peptide on one chain) in fixed, mounted COS cells; serum in the medium. A general note: In BRET a luciferase serves as donor, and the signal depends on an acceptor being close.

Pin1 WW domain of the EKAR construct, sequence (Q13526 5-39): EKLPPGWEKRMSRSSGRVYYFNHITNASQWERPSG

On to “Pin1 WW domain of the EKAR construct (from UniProt Q13526 5-39) (domain or fragment)”, for which the results for the EGFP fluorescence lifetime in experiment [1] and in experiment [2] were 2.12 ns and 1.68 ns, respectively.
